{
  "source": "paper PMC8764530",
  "about": "“Pseudomonas aeruginosa C-Terminal Processing Protease CtpA Assembles into a Hexameric Structure That Requires Activation by a Spiral-Shaped Lipoprotein-Binding Partner” (mBio, 2022)",
  "proteins": {"B1": {"name": "CtpA(ΔC6) (enzyme)", "chain": "SAPLPLDELRTFAEVLDRVKAAYVEPVDDKTLLENAIKGMLSNLDPHSAYLGPEDFAELQESTSGEFGGLGIEVGSEDGFIKVVSPIDDTPAARAGIQPGDLIVQIDGKPTKGQSMTEAVDSMRGKAGSPITLTIVRDGGRPFDVELKRAIIKVKSVKSQVLEPGYAYLRITQFQVNTGEEVVKALNQLRKDNKGRLKGLVLDLRNNPGGVLQSAVEVADAFLTKGLIVYTKGRIANSELRFSADPADPSDKVPLVVLINGGSASAAEIVAGALQDQKRAILMGTDSFGKGSVQTVLPLNNDRALKLTTALYYTPNGRSIQAQGIVPDIEVGRAKVTQERSSFEGFKEADLQGHLANGNGGADRPTGKRAAPSERPQDSDYQLSQALSLLKGL", "notes": "Pseudomonas aeruginosa CtpA, ΔN37 construct (from amino acid 38) with the last six residues Ser-431 to Asn-436 removed; also called CtpA(ΔC6) dimer; source: E. coli BL21(DE3), purified (HiTrap-Ni, thrombin, HiTrap-Q, Superdex 200); not shown: His6, N-terminal, cleaved"}, "B2": {"name": "CtpA-L426K L430K (enzyme)", "chain": "SAPLPLDELRTFAEVLDRVKAAYVEPVDDKTLLENAIKGMLSNLDPHSAYLGPEDFAELQESTSGEFGGLGIEVGSEDGFIKVVSPIDDTPAARAGIQPGDLIVQIDGKPTKGQSMTEAVDSMRGKAGSPITLTIVRDGGRPFDVELKRAIIKVKSVKSQVLEPGYAYLRITQFQVNTGEEVVKALNQLRKDNKGRLKGLVLDLRNNPGGVLQSAVEVADAFLTKGLIVYTKGRIANSELRFSADPADPSDKVPLVVLINGGSASAAEIVAGALQDQKRAILMGTDSFGKGSVQTVLPLNNDRALKLTTALYYTPNGRSIQAQGIVPDIEVGRAKVTQERSSFEGFKEADLQGHLANGNGGADRPTGKRAAPSERPQDSDYQLSQALSKLKGKSVTRGN", "notes": "Pseudomonas aeruginosa CtpA, ΔN37 construct (amino acid 38 to the C terminus, Asn-436) with L426K and L430K; also called LLKK; source: E. coli BL21(DE3), purified (HiTrap-Ni, thrombin, HiTrap-Q, Superdex 200); not shown: His6, N-terminal, cleaved"}, "B3": {"name": "CtpA-L426A L430A (enzyme)", "chain": "B2 chain with K389A, K393A", "notes": "Pseudomonas aeruginosa CtpA, ΔN37 construct (amino acid 38 to the C terminus, Asn-436) with L426A and L430A; also called LLAA; source: E. coli BL21(DE3), purified (HiTrap-Ni, thrombin, HiTrap-Q, Superdex 200); not shown: His6, N-terminal, cleaved"}},
  "note": "Substitutions are numbered along the chain they refer to. Names and notes keep the numbering of the source.",
  "data": [
    {"target": "the molecule itself", "experiment": "SEC; gel filtration of CtpA proteins, Superdex 200 prep-grade (16 × 600 mm), 10 mM Tris pH 8.0, 150 mM NaCl", "values": [
      {"protein": "B1", "stoichiometry N": 2},
      {"protein": "B2", "stoichiometry N": "~2"},
      {"protein": "B3", "stoichiometry N": "~2"}
    ]}
  ]
}
